Data from the nanobody polyreactivity screen of Harvey et al. (2022).

Test: yeast display, Sf9 membrane polyspecificity reagent, FACS + sequencing; frameworks hold sequencing errors
Method in brief: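 Synthetic nanobody libraries on Saccharomyces cerevisiae BJ5465 were galactose-induced for 36–48 hours, stained 1 hour at 4 °C with 10% biotinylated, detergent-solubilized Sf9 membrane reagent and enriched on streptavidin microbeads. FACS then separated cells into low and high (top ~1%) gates by anti-HA (expression) and streptavidin (reagent binding) fluorescence. Genes were colony-PCR amplified, MiSeq 2 × 250 sequenced and CDR-length filtered. A clone's polyreactivity label is that of its gate of origin.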

Row | Sequence | polyreactivity (PSR sort gate)
1 | QVQLVESGGGFVKAGGSLRLSCASSGSIFYSYAMGWYRQAPGKEREFVAAISWSASRTYYADSVKGRFTISRDNAKNTVYLQMNSLKPEDTAVYDCAARTYYNSGYYYWGQGTQVTVSS | high polyreactivity
2 | QVQLVESGGGFVQAGCSLRLSCDASGSIFAPNVMGCYRQAPGKERELDAAINFIGGRTYYADSVKGRFTISRDNAKNTVYLQMNSLKTEDTSVYYCNVGSYYRSYSGDFEYWGQGTQVTVSS | high polyreactivity
3 | QVQLVESGGGFVQAGGRLRLSCAASGRTFKYYAMGWYRPAPGKDRELVAAISRGGSTNYADSVKGRFTISRDNAKNTVYLQLTSLNPEDTAVYYCAADQVTDYWWRGYEYWGQGTQVTVSS | low polyreactivity
4 | QVQLVESGGGFVQAGGSLRLSCAASGCTFIKYAMGWYTQAPGKEREFVAAITRSGTSTYYADSVKGRFTISRDNAKNTVYLQMNRLKPEDTAVYFCSARYVYNSDRVSERDYWGQGTQVTVSS | high polyreactivity
5 | QVQLVESGGGFVQAGGSLRLSCAASGCTVRWNAKGWYRQATGKDRELVAAITYSGGSTYYADSVKGRLTISRDIANNTVYLQMNSLNPEDTAVYYCATEGRGYFCYYTDDYWGQGTQVTVSS | high polyreactivity
6 | QVQLVESGGGFVQAGGSLRLSCAASGFIFGYYAMGWYRQAPGKERELVAAITRSGSRTYYADSVKGRFTISRDNAKNTVYLQMNSLKPEDTAVYYFAKRRYWYYRSRDWFVSGVYWGQGTQVTVSS | low polyreactivity
7 | QVQLVESGGGFVQAGGSLRLSCAASGFSFGYSAMGWYRQAPGKERELVAAINNADSTYYADSVKGRFPISRDNAKNTVYLQMNSLKPEDTAVYYCAAVVDYGWWLAYDYWGQGTQVTVSS | high polyreactivity
8 | QVQLVESGGGFVQAGGSLRLSCAASGINVSHYTMGWYRQAPGKERELVAGISRSGGSTYYADSVKGRFTISRDNAKNTVYLQMNSLKPDDTAVYYCAADGYGFVSPRGYNYWGQGTQVTVSS | high polyreactivity
9 | QVQLVESGGGFVQAGGSLRLSCAASGRIFGQYAMGWYRQAPGKERELVAAISQRGGSTYYADSVKGRFTISRDNAKNTVYLQMNSLKPEDTAVYYCAAPPRLIKSYGYNYWGQGTQVTVSS | high polyreactivity
10 | QVQLVESGGGFVQAGGSLRLSCAASGRIFGVYALGWYRPAPGKERELVAAISYSGGSTYYADSVKGRFTISRVNAKNTVYLQMNSLKPEDTAVYYCAAKIFPKGDYWGQGTQVTVSS | high polyreactivity
11 | QVQLVESGGGFVQAGGSLRLSCAASGRTFNGYAMGWYTQAPGKERELVAGISWRGTSTYYSDSVKGRFTISRDNAKNTVYLQLNSLKPEDTAVYYCAASRYLLYDYWGQGTQVTVSS | high polyreactivity
12 | QVQLVESGGGFVQAGGSLRLSCAASGSIFRGYAMGWYRQAPGKERELVAAIRYSGARTYYADSVKGRFTISRDNAKNTVYLQMNSLKPEDTAVYYCNARYIRSYDYWGQGTQVTVSS | high polyreactivity
13 | QVQLVESGGGFVQAGGSLRLSCAASGSTFFTNAKGWYRQAPGKERELVAASRWRGGTYYADSVKGRFTISRDNAKKTVYLQMNSLKPEDTPVYDCATSVKTSFDYWRQGTQVTVSS | low polyreactivity
14 | QVQLVESGGGFVQAGGSLSLSCAASGRIFGINAMLWYRQAPGKVRELVAAISSSGANTYYADSVKGRFTISRDNAKNTVYLQMNRLKPEDTAVYYCATKASSYQSPYYYWGQGTQVTVSS | high polyreactivity
15 | QVQLVESGGGFVQAGVSLRLSCAASGSIYYNAMGWYIQAPGKERELVAGITSSGGSTYYADSVKGRFTISRDNAKNTVYLQMISLKPEDTAVYFCAADFVYLCTLFGAYDYCGQGTQVTVSS | low polyreactivity
16 | QVQLVESGGGIDQAGGSLRLICAASGRTFTQYAMRWSRQAHGKERELVAAITRSGGSTYYADSVKGRFTISRDNAKNTVYVLMNILKPEDTAVYYCAKRPAYRSTQTFDFWGQGTQVTVSS | high polyreactivity
17 | QVQLVESGGGIFHAGGSLRLRCAASGSIYRGYAMVWYRQAPGKERELVASIRWRGGRTNYADSVKGRFTISRDNAKNTVYLQMNSLKPEDTAVYYCNADQQTIRSGKNDYWGQGTQVTVSS | low polyreactivity
18 | QVQLVESGGGIFQAGGSLRLSCDASGFTIGAYAMGWYRQAPGKERELVAAITLRTGGSTYYADSLKGRFTISRDNAKNTVYLQMNSLKPEDTAVYYCATYGSYWRKSRAPGYYYGGQGTQVTVSS | high polyreactivity
19 | QVQLVESGGGIVHAGCSLRLSSTASRFIFWWYAMAGYRQAHGKERELVATITASVGSTNYADSVKGRFTISRDNAKNTVYLQMNSLNPEDTAVYYCATDIIGAIRDWDHTRMDYWGQGTQVTVSS | low polyreactivity
20 | QVQLVESGGGIVHAGGSLRLSCAASGFIFDTNAMGWYRQAPGKEREMVAAITNDDSTNYADSVKGRFTISRDNAKTTVYLQMNSLKPEDTSVYYCAAYYIAQVVWPTTFHQQEYDYWGQGSQVTVSS | low polyreactivity
21 | QVQLVESGGGIVKAAGSLRLSCAASGSTFKKYAMGWDRQAPRKERELVASISSGGGTYYADSVKGRFTISRDNAKNTVYVQMNSLKPEDTAVYYCAARYHYAKSPYRYYYWGQGTQVTVSS | high polyreactivity

Row | Sequence | polyreactivity (PSR sort gate)
22 | QVQLVESGGGIVKAGGSLGISCAASGRIFDYYDMLWYRQAPGKERELVAAITQSGGSTNYADSVKGRFTISRDNAKNTVYLQMNSLKPEDTAVYYCAGVGYYTKRRFGYWGQGTQVTVSS | high polyreactivity
23 | QVQLVESGGGIVQAAGSLRLSCAASGFTIYYYAMVWYRQAPGKERELVASITSGGSTYYADSVKGRFTISRDNAKNTVYLQMNSLKPEDTAVYYCAITRFHSKEGVYWGQGTQVTVSS | low polyreactivity
24 | QVQLVESGGGIVQAGGRLRISCAASGFSFRKYAMGWSRQAPGKEREFVASISSTGARTYYADSVKGRFTISRDNAKNTVYLQMTSLKPEDTAVYYCAAAYGRYYYTYDYWGLGTQVTVSS | high polyreactivity
25 | QVQLVESGGGIVQAGGRLRLRCAASGSNFYYNAMGWYRQAPGKERELVAAITWSGGRTYYADSVKGRFTISRDNAKNTVYLQMNSLKPEDTAVYYCNARYRASRYNYWGQGTQVTVSS | high polyreactivity
26 | QVQLVESGGGIVQAGGRLRLSCAASGSILAGYALGWYRQSPGKERELVAAISESGGNTYYADSVKGRFTISRDNAKNTVYLQMNSLKPEDTAVYYCAADLGYGPLRELEYWGQGTQVTVSS | low polyreactivity
27 | QVQLVESGGGIVQAGGRLRLSCAASGSTFFKYARGWYRQAPGKERELVATMSGTGGRTYYADSVKGRFTISRDNAKNTVYLQMNSLKPEDTAVYYCAAGIYRPFFYTLDYWGQGTQVTVSS | low polyreactivity
28 | QVQLVESGGGIVQAGGSFRLSCAASGSIFVVYAMGWYRQAPGKERELVAAITSGGSTYYADSVKGRFTISRDNAKNTVYLQMNSLKPEDTAVYYCATTYRDGVYELTTFDYWGQGTQVTVSS | low polyreactivity
29 | QVQLVESGGGIVQAGGSHRVICAASGRIFRRYTMGWYRQATGKERDLVATITWDGVSTYYADSVKGRFTISRDNAKKTDYLQMNSLKPEDTAGYYCAARRVYLVGGRYDSWGQGTQVTVSS | high polyreactivity
30 | QVQLVESGGGIVQAGGSLRISCAASRRTYFFNDMGWYRQAPGKERELVAAIGWSTVTTYYADSVKGRFTISRDNAKYTVYFQMISLKPEDTAVYYCAADADGWYSPYDYWGQGSQVTVSS | high polyreactivity
31 | QVQLVESGGGIVQAGGSLRLICAASGFTFGEYAMGRYRQAPGKERELVAAISRGTSTYYADSVKGRFTISRDNAKTTVYLQMNSLKPEDTAVYYCAADWGGLWFWYEYWGQGTQVTVSS | low polyreactivity
32 | QVQLVESGGGIVQAGGSLRLICAASGLIFTLYAMGWSRQAPGKERQLVAVISSAGSTNYADSVKGRFTISRDTAKNTVYLQMNSLKPEETAVYYCNAEPTTPYWDYWAYEDDYWGQGTQVTVSS | low polyreactivity
33 | QVQLVESGGGIVQAGGSLRLICAASGRIFPYNVMGWYRQAPGKERELVAAISSGGTTDYADSVKGRFTISRDNAKNTVYLQMNSLKPEDTAVYYCAATYVYWTWGYDYWGQGTQVTVSS | low polyreactivity
34 | QVQLVESGGGIVQAGGSLRLICAASGSIFSSNAMGWYRQAPGKERELVAAISYSGGGTYYADSVKGRFTISRDNEKNTVYLQMNSLKAEDTAVYYCAVGILFGHYDYLGQGTQVTVSS | high polyreactivity
35 | QVQLVESGGGIVQAGGSLRLRCAASGSTFKVYAIGWYRQATGKERELVAAISRGGRTYYADSVKGRFTISRDNAKNTVYLQMNSLKPEDTAVYYCAAGDQYKTRRNGYGYWGQGTQVTLSS | high polyreactivity
36 | QVQLVESGGGIVQAGGSLRLSCAAAGFTFWQYAMGWYRQAPGKERELVAAITWDGGSTYYADSVKGRFTISRDYAKNTVYLQMNSLKPEDTAVYYCAKLFGGTYYEYDYWGQGTQVTVSS | low polyreactivity
37 | QVQLVESGGGIVQAGGSLRLSCAASGFIFAGNAMGWSSQAPGKERELVAAITRRGGSTHYADSVKGRFTISRDKAKYTVYLQMNSLKPEDTAVYYCNAAVQPPWSDYWGQGTQVTVSS | low polyreactivity
38 | QVQLVESGGGIVQAGGSLRLSCAASGFIFRYYAMGWYRHAPGKESELVATITRSGGSTYYADSVKGRFTISRDNAKNTVYLQMNSLKPEDTAVYYCAADIYWYRGYGYWGQGTQVTVSS | high polyreactivity
39 | QVQLVESGGGIVQAGGSLRLSCAASGFIFVLYAMGWYRQAPGKERELVASISSTGSTYYADSVKGRFTISRENAKNTVYLQMNSLIPEDTAVYYCNLFVFDPEDFWGEGTQVTVSS | low polyreactivity
40 | QVQLVESGGGIVQAGGSLRLSCAASGFIFWKNAMGWYSQAPGKERELVAAISTRGGSTYYADSVKGRFTISRDNAKNTVYLQMNSLKPEDTAVYYCNKEWYPYKHNYWGQGTQVTVSS | low polyreactivity
41 | QVQLVESGGGIVQAGGSLRLSCAASGFKFKFYVMGWYRQAPGKERELVAAISRNSVSTYYADSVKGRFTISRDNAKNTVYLQMNSLKPEDTAVYYCAAKGPRQYNHWGQGTQVTVSS | high polyreactivity
